Source: paper PMC5955111, “The multifunctional protein YB-1 potentiates PARP1 activity and decreases the efficiency of PARP1 inhibitors”

Key:
YB-1;PARP1 = YB-1;PARP1 (human;human, UniProt P67809;P09874 1-324;1-1014, |); assay: fluorescence anisotropy; 200 nM PARP1, 100 nM DNA, 0-1600 nM YB-1; ternary complex; 1x RB (composition not in the material); anisotropy at 25 C; EMSA: 37 C 10 min, 7.6% native PAGE in 25 mM Tris-borate pH 8.3 at 4 C; DNA 100 nM (anisotropy), 40 nM in Methods vs 100 nM in Figure 1B legend (EMSA); conditions: protein: recombinant;recombinant; tags: His-tag;; label: 3'-FAM on ODN1; for gel shift ODN1 also 5'-32P; blunt 32-bp duplex with a nick between ODN2 and ODN3; ODN1:ODN2:ODN3 annealed 1:1.2:1.2
Sequence of YB-1;PARP1 (P67809 whole entry, chain 1 of 2): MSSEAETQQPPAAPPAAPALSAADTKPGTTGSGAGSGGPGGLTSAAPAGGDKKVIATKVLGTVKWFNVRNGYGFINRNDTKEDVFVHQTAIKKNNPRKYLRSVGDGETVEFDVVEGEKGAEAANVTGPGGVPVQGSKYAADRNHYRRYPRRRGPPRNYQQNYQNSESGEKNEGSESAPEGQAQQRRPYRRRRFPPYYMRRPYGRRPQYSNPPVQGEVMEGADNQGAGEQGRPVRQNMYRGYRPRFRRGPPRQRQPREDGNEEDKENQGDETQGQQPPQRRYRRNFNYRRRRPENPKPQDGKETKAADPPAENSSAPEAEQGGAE
Sequence of YB-1;PARP1 (P09874 whole entry, chain 2 of 2): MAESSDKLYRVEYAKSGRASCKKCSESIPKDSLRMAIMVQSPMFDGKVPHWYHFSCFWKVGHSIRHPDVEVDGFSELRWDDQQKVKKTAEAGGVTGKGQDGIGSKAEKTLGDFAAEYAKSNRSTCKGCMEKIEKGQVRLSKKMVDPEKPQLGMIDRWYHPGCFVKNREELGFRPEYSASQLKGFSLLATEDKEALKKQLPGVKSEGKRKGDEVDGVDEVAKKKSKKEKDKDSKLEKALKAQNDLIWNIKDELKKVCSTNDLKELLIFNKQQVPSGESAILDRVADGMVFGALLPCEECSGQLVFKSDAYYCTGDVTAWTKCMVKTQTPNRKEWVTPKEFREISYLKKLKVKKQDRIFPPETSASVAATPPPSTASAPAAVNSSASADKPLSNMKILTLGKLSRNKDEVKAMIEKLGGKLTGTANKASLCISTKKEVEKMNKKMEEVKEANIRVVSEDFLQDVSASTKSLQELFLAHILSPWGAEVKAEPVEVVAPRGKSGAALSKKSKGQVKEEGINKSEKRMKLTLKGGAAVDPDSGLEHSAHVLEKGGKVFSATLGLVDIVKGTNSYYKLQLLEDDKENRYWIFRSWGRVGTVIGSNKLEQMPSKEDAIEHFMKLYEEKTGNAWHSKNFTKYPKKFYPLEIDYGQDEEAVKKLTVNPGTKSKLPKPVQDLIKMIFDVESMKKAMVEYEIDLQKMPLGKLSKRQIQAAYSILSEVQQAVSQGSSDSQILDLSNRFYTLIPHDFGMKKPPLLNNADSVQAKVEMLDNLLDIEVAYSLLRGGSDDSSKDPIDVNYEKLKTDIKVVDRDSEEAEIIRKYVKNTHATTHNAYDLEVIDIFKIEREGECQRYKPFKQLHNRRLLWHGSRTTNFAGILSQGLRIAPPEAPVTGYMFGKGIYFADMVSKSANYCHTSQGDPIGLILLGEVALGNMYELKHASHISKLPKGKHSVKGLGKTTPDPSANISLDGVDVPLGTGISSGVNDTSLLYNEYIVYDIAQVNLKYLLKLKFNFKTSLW

YB-1 = YB-1 (human, UniProt P67809 1-324); assay: fluorescence anisotropy; no PARP1; 100 nM DNA, 0-1600 nM YB-1; 1x RB (composition not in the material); anisotropy at 25 C; EMSA: 37 C 10 min, 7.6% native PAGE in 25 mM Tris-borate pH 8.3 at 4 C; DNA 100 nM (anisotropy), 40 nM in Methods vs 100 nM in Figure 1B legend (EMSA); conditions: protein: recombinant; tags: His-tag; label: 3'-FAM on ODN1; for gel shift ODN1 also 5'-32P; blunt 32-bp duplex with a nick between ODN2 and ODN3; ODN1:ODN2:ODN3 annealed 1:1.2:1.2
Sequence of YB-1 (P67809 whole entry): as the sequence (P67809 whole entry, chain 1 of 2) above

B1: Nick (ODN1+ODN2+ODN3) (dsDNA)
DNA 1: GGAAGACCCTGACGTTTCCCAACTTTATCGCC
DNA 2: GGCGATAAAGTTGGG
DNA 3: AAACGTCAGGGTCTTCC
YB-1;PARP1
  binding result: binds
YB-1
  binding result: binds
